Assays:
[1] = molecular target: T1, Native proenzyme human C1s (Comptech A103) (human, UniProt P09871 16-688); assay: SPR (BIACORE T200, 37 degrees C, pH 7.4), antibody captured by protein A/G, C1s 50 nM
T1 construct: mature; Bought native protein; also called native human C1s Proenzyme; native human C1s proenzyme protein (CompTech)
T1 sequence (looked up): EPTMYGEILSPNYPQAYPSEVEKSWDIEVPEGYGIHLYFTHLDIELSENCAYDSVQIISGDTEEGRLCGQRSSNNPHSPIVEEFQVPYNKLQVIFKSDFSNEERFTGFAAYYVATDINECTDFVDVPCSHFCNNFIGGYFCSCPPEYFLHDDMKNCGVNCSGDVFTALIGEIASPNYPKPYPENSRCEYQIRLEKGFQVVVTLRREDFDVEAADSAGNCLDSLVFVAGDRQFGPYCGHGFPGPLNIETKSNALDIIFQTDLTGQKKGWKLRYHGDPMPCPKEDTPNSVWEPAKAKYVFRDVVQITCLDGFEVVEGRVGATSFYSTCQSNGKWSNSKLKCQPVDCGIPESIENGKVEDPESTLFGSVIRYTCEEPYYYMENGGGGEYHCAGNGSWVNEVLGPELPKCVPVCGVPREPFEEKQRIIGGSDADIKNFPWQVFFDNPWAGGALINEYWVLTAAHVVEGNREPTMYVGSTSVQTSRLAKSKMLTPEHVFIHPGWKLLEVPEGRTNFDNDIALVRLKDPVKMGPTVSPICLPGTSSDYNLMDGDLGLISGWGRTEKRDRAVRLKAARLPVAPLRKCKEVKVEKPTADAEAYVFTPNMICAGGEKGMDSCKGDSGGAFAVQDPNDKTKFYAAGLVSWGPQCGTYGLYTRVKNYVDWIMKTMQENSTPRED
Protocol: The binding specificities of the six C1s CUB1-EGF-CUB2 binders were determined at 37 degrees C. using BIACORE® T200 instrument (GE Healthcare). Recombinant Protein A/G (Pierce) was immobilized onto all flow cells of a CM4 sensor chip using an amine coupling kit (GE Healthcare). Antibodies and analytes were prepared in 7(+) buffer (20 mM ACES, 150 mM NaCl, 1.2 mM CaCl₂, 0.05% Tween 20, 0.005% NaN₃, pH 7.4). Each antibody was captured onto the sensor surface by protein A/G. Antibody capture levels were aimed at 100 resonance unit (RU). Native proenzyme human C1s (Comptech A103) (at 50 nM as a monomer) or recombinant human C1s CCP1-CCP2-SP-His (at 100 nM as a monomer) was injected, followed by dissociation. Sensor surface was regenerated each cycle with 10 mM Glycine-HCl pH 1.5. The six C1s CUB1-EGF-CUB2 binders bound to the native proenzyme human C1s, but not recombinant human C1s CCP1-CCP2-SP-His, which is a truncated protein lacking the CUB1-EGF-CUB2 domain.

[2] = molecular target: T2, recombinant human C1s CCP1-CCP2-SP-His (human, UniProt P09871 292-688); assay: SPR (BIACORE T200, 37 degrees C, pH 7.4, 1.2 mM CaCl2), antibody captured by protein A/G
T2 construct: Truncated protein lacking the CUB1-EGF-CUB2 domain; also called human C1s CCP1-CCP2-SP M292-D688
T2 sequence: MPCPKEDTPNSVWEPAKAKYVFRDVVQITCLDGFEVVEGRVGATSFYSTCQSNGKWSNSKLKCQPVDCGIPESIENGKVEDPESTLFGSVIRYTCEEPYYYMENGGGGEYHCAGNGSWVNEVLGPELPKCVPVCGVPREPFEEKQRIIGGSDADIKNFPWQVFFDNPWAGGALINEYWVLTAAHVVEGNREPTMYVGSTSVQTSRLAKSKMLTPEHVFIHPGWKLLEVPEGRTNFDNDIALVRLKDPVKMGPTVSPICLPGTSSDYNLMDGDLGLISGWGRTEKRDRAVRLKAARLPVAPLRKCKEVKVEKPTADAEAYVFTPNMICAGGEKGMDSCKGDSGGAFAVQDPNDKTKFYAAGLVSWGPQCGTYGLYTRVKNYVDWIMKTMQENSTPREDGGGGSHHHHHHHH

- binding result [1]: binds
- binding result [2]: no binding (tested: 100 nM)
B1: COS0583gg-SG1148 (antibody, human IgG1, kappa, V domains shown)
VH: QSLEESGGRLVTPGTPLTLTCTVSGIDLSSYAMIWVRQAPGKGLEWIGIIYVRGSTYYASWAKDRFTISKTSTTVDLKITSPTTEDTATYFCARAYGGDTFSDGFDPWGPGTLVTVSS
VL: DPVMTQTPSSTSAAVGGTVTINCQSSQNVYGNNRLAWYQQKPGQPPKLLIYLASTLASGVPSRFRGNGSGTQFTLTISGVQCDDAATYYCAGGYRDDTNSFGGGTKVEIKR
notes: Constant regions as for m1; also called COS583; COS583gg(-SG1148)
